Changes are numbered by the printed parent chain.
B1: PRT-624 (protein)
chain: MQITSVWTKGVTPLTPEQFRYNNEDVIHAPYLAHQGWYDITKAFDGKDNLLCGAATAGNMLHWWFDQNKTEIEAYLSKHPEKQKIIFNNQELFDLKAAIDTKDSQTNSQLFNYFRDKAFPNLSARQLGVMPDLVLDMFINGYYLNVFKTQSTDVNRDYDDKDKRGGIFDDVFGKGDQTTLLTARHDLKNKGLNDISTIIKQELTEGRALALSHTYANVSISHVINLWGADFNAEGNLEAIYVTDSDANASIGMKKYFVGINAHGHVAISAKKIEGENIGAQVLGLFTLSSGKDIWQKLSLEHHHHHH
B2: PRT-658 (protein)
chain: B1 chain with K96R, A97K, D100N, Q109A, D157P, D159Q, D170A, G173T, K174R
B3: PRT-625 (protein)
chain: B1 chain with D157P, Y158E, D170H, G173T, K174R, T178S
B4: PRT-646 (protein)
chain: B1 chain with D157P, D159Q, D170A, G173T, K174R, A183E, R184T, H185T, K188Y, N189G
B5: PRT-661 (protein)
chain: B1 chain with H34N, A43T, A97K, D157P, D159Q, D170A, G173T, K174R, A247S, H263A
B6: PRT-623 (protein)
chain: MQITTVWTKGVTPLTPEQFRYNNEDVIHAPYLAHQGWYDITKAFDGKDNLLCGAATAGNMLHWWFDQNKTEIEAYLSKHPEKQKIIFNNQELFDLKAAIDTKDSQTNSQLFNYFRDKAFPNLSARQLGVMPDLVLDMFINGYYLNVFKTQSTDVNRPYQDKDKRGGIFDAVFTRGDQTTLLTARHDLKNGTLNEISQIIKQELQSGRALALSHTYANVSISHVINLWGADFNAEGNLIAIYVTDSDANASIGMKKYFVGINAHGHVAISAKKIEGENIGAQVLGLFTLSSGKDIWQKLSLEHHHHHH
B7: PRT-549 (protein)
chain: MANQEIRYSEDTPSHITSVWTKGVTPPTQFIQNEDVLHAPYIANQGWYDITKTFNGKDDLLCGAATAGNMLHWWFDQNKEQIEAYLKKYPEKQKINFNGEQMFDVKEAIDTKDSQTDSALFNYFKDKAFPYLSTKHLGVFPDHVIDMFINGYRLSLTNHGPTPVKNQTKDPRGGIFDAVFTRGDQSKLLTARHDFKEKTLKEISQLIKQELTEGKALGLSHTYANVRINHVINLWGADFNAEGNLEAIYVTDSDSNASIGMKKYYVGVNAAGKVAISAKEIEGDNIGAQVLGLFTLSTGQDIWQQTNLEHHHHHH
B8: PRT-696 (protein)
chain: MTITSVWTKGVTPPTPEDFRYNNEDVLHAPYVPNQGWYDITKTFDGGDNLLCGAATAGNMLHWWFDQNKEEIERYLKKYPEKQKIIFNNQELFDVRAAINSKDSQTNSKLFNYFRDKAFPNLSARQLGVMPDLVLDMFINGYYLNLGKTQSTDVNRPYQDPDKRGGIFDDVFKEGDQTTLLTARHDLKNGGLNEISDLIKQELQSGKALALSHTYANVRINHVINLWGADFDAEGNLIAIYVTDSDANQSIGMKKYKVGVNANGKVAISAKKIEGDNIGAQVLGLFTLSTGQEIWQKLSLEHHHHHH
B9: PRT-609 (protein)
chain: MQITSVWTKGVTPLTPEQFRYNNEDVIHAPYLAHQGWYDITKAFDRGDNLLCGAATAGNMLHWWFDQNKTEIEAYLSKHPEKQKIIFNNQELFDLKAAIDTKDSQTNSQLFNYFRDKAFPNLSARQGGVMPDLVLDMFINGYYLNVFKTQSTDVNRPYQDKDKRGGIFDAVFTRGDQTTLLTARHDLKNKGLNDISTIIKQELTEGRALALSHTYANVSISHVINLWGADFNAEGNLEAIYVTDSDADEKIGMKKYFVGINAHGHVAISAKKIEGENIGAQVLGLFTLSSGKDIWQKLSLEHHHHHH
B10: PRT-637 (protein)
chain: B9 chain with R46G, N49G, G127K, D248G, E249N, K250G
B11: PRT-635 (protein)
chain: MQITSVWTKGVTPLTPDQFTNQGEDVIHAPYTPNQGWYDITKAFDGKDNLLCGAATAGNMLHWWFDQNKTEIEAYLSKHPEKQKIIFNNQELFDLKAAIDTKDSQTNSQLFNYFRDKAFPNLSARQLGVMPDLVLDMFINGYYLNVFKTQSTDVNRPYQDKDKRGGIFDAVFTRGDQTTLLTARHDLKNKGLNDISTIIKQELTEGKALALSHTYANVSISHVINLWGADFNAEGNLEAIYVTDSDANASIGMKKYFVGINAHGHVAISAKKIEGENIGAQVLGLFTLSSGKDIWQKLSLEHHHHHH
B12: PRT-686 (protein)
chain: MQITSVWTKGVTPLTPEQFTYNNEDVIHAPYIANQGWYDITKTFNGKDNLLCGAATAGNMLHWWFDQNKTEIENYLKKHPEKQKIIFNNQELFDLRKAINTKDSQTNSALFNYFRDKAFPNLSARQLGVMPDLVLDMFINGYYLNVFKTQSTDVNRPYQTKDKRGGIFDHVFTRGDQSTLLTARHDLKNKTLNEISDIIKQELTEGKALALSHTYANVSISHVINLWGADFNAEGNLEAIYVTDSDANASIGMKKYFVGVNSHGKVAISAKKIEDENIGAQVLGLFTLSSGQDIWEQLSLEHHHHHH
B13: PRT-497 (protein)
chain: MVTSVWTKGVTPPTDFRKIVDGNIAYYHAPYKAGQGWYDITKTFNGKDDLLCGAATAGNMLHWWFDQNKEYIEAYLKKHPEKQKIMFGDQELLDVRKAINTKGSQKNSELFNYFRDKAFPNLSARRLGVMPDLVLDMFINGYYLNVTKTQTTDVNRTYQEKDKRGGIFDAVFTRGDQSKLLTSRHDFKEKGLKEISDLIKQELTEGKALGLSHTYANVRINHVINLWGADFDSDGNLKAIYVTDSDSNASIGMKKYFVGVNSAGKVAISAKEIKEDNIGAQVLGLFTLSTGQDIWNQTNLEHHHHHH
B14: PRT-692 (protein)
chain: MQITSVWTKGVTPPTPEQFRYNNEDVIHAPYLPNQGWYDITKTFNGGDNLLCGAATAGNMLHWWFDQNKTEIEAYLSKYPEKQKIIFNNQELFDLRAAINSKDSQTNSQLFNYFRDKAFPNLSARQLGVMPDLVLDMFINGYYLNVFKTQSTDVNRPYQDPDKRGGIFDDVFKEGDQTTLLTARHDLKNGTLNDISTLIKQELQSGKALALSHTYANVSISHVINLWGADFNAEGNLEAIYVTDSDANQSIGMKKYKVGVNAHGKVAISAKKIEGENIGAQVLGLFTLSSGKEIWQKLSLEHHHHHH
B15: PRT-643 (protein)
chain: MQITSVWTKGVTPLTPEQFRYNNEDVIHAPYLAHQGWYDITKAFDGKDNLLCGAATAGNMLHWWFDQNKTEIEAYLSKHPEKQKIIFNNQELFDLKAAIDTKDSQTNSQLFNYFRDKAFPNLSARQLGVMPDLVLDMFINGYYLNVFKTQSTDVNRPYQDKDKRGGIFDAVFTRGDQTTLLTARHDLKNKGLNDISTIIKQELTEGRALALSHTYANVSISHVINLWGADFNAEGNLEAIYVTDSDANASIGMKKYKVGYNKDGRVAISAYKIEGENIGAQVLGLFTLSSGKDIWQKLSLEHHHHHH
B16: PRT-687 (protein)
chain: MQITSVWTKGVTPLTPEQFRYNNEDVIHAPYKPHQGWYDITKTFNGKDNLLCGAATAGNMLHWWFDQNKTEIEAYLKKYPEKQKIIFNNQKLFDLRKAINTKDSQTNSALFNYFRDKAFPNLSARQLGVMPDLVLDMFINGYYLNVFKTQSTDVNRPYQTRDKRGGIFDHVFGRGDQTTLLTARHDLKNKTLNEISQIIKQELSEGKALALSHTYANVSISHVINLWGADFNAEGNLEAIYVTDSDANAKIGMKKYYVGKNAHGKVAISAKKIEGENIGAQVLGLFTLSSGKDIWQKLSLEHHHHHH

Target: pooled human IgG (human IgG1, 2, 3 and 4)

| Protein | Enzyme Activity Endpoint Assay (purified): Fab′2 | Enzyme Activity Endpoint Assay (purified): Fc | Enzyme Activity Endpoint Assay (purified): IgG | Enzyme Activity Endpoint Assay (purified): scIgG |
| --- | --- | --- | --- | --- |
| B1 | 89 ng/µL | 251 ng/µL | 96 ng/µL | 626 ng/µL |
| B2 | 822 ng/µL | 473 ng/µL | 0 ng/µL | 317 ng/µL |
| B3 | 451 ng/µL | 405 ng/µL | 78 ng/µL | 531 ng/µL |
| B4 | 582 ng/µL | 435 ng/µL | 39 ng/µL | 635 ng/µL |
| B5 | 187 ng/µL | 121 ng/µL | 0 ng/µL | 70 ng/µL |
| B6 | 433 ng/µL | 260 ng/µL | 0 ng/µL | 157 ng/µL |
| B7 | 725 ng/µL | 491 ng/µL | 0 ng/µL | 279 ng/µL |
| B8 | 58 ng/µL | 0 ng/µL | 1020 ng/µL | 19 ng/µL |
| B9 | 460 ng/µL | 216 ng/µL | 702 ng/µL | 726 ng/µL |
| B10 | 278 ng/µL | 188 ng/µL | 464 ng/µL | 602 ng/µL |
| B11 | 0 ng/µL | 0 ng/µL | 0 ng/µL | 0 ng/µL |
| B12 | 608 ng/µL | 355 ng/µL | 0 ng/µL | 252 ng/µL |
| B13 | 0 ng/µL | 0 ng/µL | 0 ng/µL | 0 ng/µL |
| B14 | 442 ng/µL | 44 ng/µL | 429 ng/µL | 38 ng/µL |
| B15 | 664 ng/µL | 409 ng/µL | 33 ng/µL | 226 ng/µL |
| B16 | 738 ng/µL | 420 ng/µL | 0 ng/µL | 295 ng/µL |

From patent US20250027068
